Laboratory results taken from US20020143164A1, “Ras activator nucleic acid molecules, polypeptides and methods of use” (priority 1999, published 2002).
Each block holds one molecule with its values, some of them ahead of it.

Key:
Ras [1] = assay: Ras activation assay in living cells, GRF4 and deletion mutants expressed in HEK-293T cells; type: cell-based, human; settings: HEK-293T cells treated with 8-Br-cAMP
Method: HEK-293T cells were transfected with vector alone, GRF4 (WT), GRF4 lacking its cNMP-BD (ΔcNMP-BD) or its CDC25 domain (ΔCDC25), and then treated (or not) with 8-Br-cAMP. Cell lysates were then incubated with GST-Raf1-RBD to precipitate active Ras, and immunobloited with anti Ras antibodies as above (upper panel). Lower panels are controls for total endogenous Ras and transfected GRF4 or its mutants.
Flag, HA or myc tags was added to the N-terminus of full length GRF4 using PCR, and subcloned into the mammalian expression vector pCMV5 (Invitrogen). Mutants GRF4 with deletion of the CDC25 domain (residue 711-1007, GRF4DCDC25 or DCDC25 for short), the cNMP-BD (residue 134-254, DcNMP-BD), the PLPF motif in the PDZ domain (residue 396-399, -PLPF), or bearing mutations in the PDZ-binding motif (SAV to AAA), were generated using PCR. The GST-GRF4-cNMP-BD (residue 101-303) and GST-Carboxy-terminus (residue 1348-1499) were PCR-generated and cloned into pGEX-2T ( Pharmacia). The latter construct was used to generate a fusion protein (GST-GRF4C terminus) which was used to immunize rabbits for the generation of polyclonal anti GRF4 antibodies.
HEK-293T cells were transfected as above, serum starved overnight and then subjected to various treatments, as described in the text. […] GTP in the lysates was determined using activation specific probes as described. Briefly, to determined the levels of active Ras (Ras-GTP) in cell, sepharose-bound GST fusion protein of the Ras-binding domain (RBD) of Raf-1 (GST-Raf1-RBD; Upstate Biotechnology Inc.) was used to precipitate Ras-GTP from cell lysates, and the amount of Ras-GTP determined by immunoblotting with anti Ras antibodies (Quality Biotech). Similarly, to determine the level of Rap1-GTP in cell lysates, sepharose-bound GST fusion proteins of the Rap1-binding domain of RaIGDS (GST-RaIGDS-RBD) were used to precipitate Rap1-GTP, which was then detected on a Western blot using anti-Rap1 antibodies (Transduction Lab).

Ras [2] = assay: In vitro GEF assay (32P-α-GTP binding to Ras); type: biochemical
Method: Full length (GRF4) or CDC25-deleted (ΔCDC25) GRF4, or GRF2, each Flag-tagged, were immunoprecipitated from transfected Hek-293T cells using anti Flag antibodies. Equal amounts of immunoprecipitates were washed with GEF lysis buffer, equilibrated with GEF assay buffer and incubated with 32P-α-GTP (diluted in cold GTP) plus 100 ng of Ras for 30 min. Bound and unbound radiolabelled GTP were then separated by filtration, and the amount of bound GTP determined by scintillation counting, as detailed in the Method section. Fold Ras activation was compared to the activation of Ras in the absence of GRFs (which was set to 1).
GRF4 has a RasGRF(GEF) activity/function. To show its GEF activity, we performed in-vitro GEF assays. Briefly, GST-Ras was added alone (tubes 1 and 2) or along with GST-CDC25, or immunoprecipitated full-length of GRF4 (tubes 3 and 4). All tubes contained assay mixture including cold GTP and P32 alpha GTP. The exchange reactions were stopped at the indicated times. The stopped reaction mixtures were passed through nitrocellulose filters which were then washed with stop buffer to separate bound and unbound nucleotides. Filters were dried and then quantified by scintillation counting to determine bound CPM. The labeled nucleotides trapped on the washed filters were assumed to be Ras-associated. The difference in bound CPM over 30 minute period was determined for reactions where GST-Ras was added alone (it is the difference in bound CPM between tubes 1 and 2) and where GST-Ras was added with a GEF (it is the difference in bound CPM between tubes 3 and 4).

Ras [3] = settings: reference 23; cited from earlier work

B1: ACDC25: Mutant GRF4 with deletion of the CDC25 domain (residue 711-1007) (protein)
chain: MKPLAIPANHGVMGQQEKHSLPADFTKLHLTDSLHPQVTHVSSSHSGCSITSDSGSSSLSDIYQATESEAGDMDLSGLPETAVDSEDDDDEEDIERASDPLMSRDIVRDCLEKDPIDRTDDDIEQLLEFMHQLPAFANMTMSVRRELCAVMVFAVVERAGTIVLNDGEELDSWSVILNGSVEVTYPDGKAEILCMGNSFGVSPTMDKEYMKGVMRTKVDDCQFVCIAQQDYCRILNQVEKNMQKVEEEGEIVMVKEHRELDRTGTRKGHIVIKGTSERLTMHLVEEHSVVDPTFIEDFLLTYRTFLSSPMEVGKKLLEWFNDPSLRDKVTRVVLLWVNNHFNDFEGDPAMTRFLEEFENNLEREKMGGHLRLLNIACAAKAKRRLMTLTKPSREAPLPFILLGGSEKGFGIFVDSVDSGSKATEAGLKRGDQILEVNGQNFENIQLSKAMEILRNNTHLSITVKTNLFVFKELLTRLSEEKRNGAPHLPKIGDIKKASRYSIPDLAVDVEQVIGLEKVNKKSKANTVGGRNKLKKILDKTRISILPQKPYNDIGIGQSQDDSIVGLRQTKHIPTALPVSGTLSSSNPDLLQSHHRILDFSATPDLPDQVLRVFKADQQSRYIMISKDTTAKEVVIQAIREFAVTATPDQYSLCEVSVTPEGVIKQRRLPDQLSKLADRIQLSGRYYLKNNMETETLCSDEDAQELLRESQPKNPGDKKPVKSETSPVAPRAGSQQKAQSLPQPQQQPPPAHKINQGLQVPAVSLYPSRKKVPVKDLPPFGINSPQALKKILSLSEEGSLERHKKQAEDTISNASSQLSSPPTSPQSSPRKGYTLAPSGTVDNFSDSGHSEISSRSSIVSNSSFDSVPVSLHDERRQRHSVSIVETNLGMGRMERRTMIEPDQYSLGSYAPMSEGRGLYATATVISSPSTEELSQDQGDRASLDAADSGRGSWTSCSSGSHDNIQTIQHQRSWETLPFGHTHFDYSGDPAGLWASSSHMDQIMFSDHSTKYNRQNQSRESLEQAQSRASWASSTGYWGEDSEGDTGTIKRRGGKDVSIEAESSSLTSVTTEETKPVPMPAHIAVASSTTKGLIARKEGRYREPPPTPPGYIGIPITDFPEGHSHPARKPPDYNVALQRSRMVARSSDTAGPSSVQQPHGHPTSSRPVNKPQWHKPNESDPRLAPYQSQGFSTEEDEDEQVSAV
- 8-Br-cAMP-mediated activation of Ras via the construct, compared with wt-GRF4 (Ras [1]): almost abolished

- Fold Ras activation in vitro (activation without GRFs set to 1) (Ras [2]; immunoprecipitated Flag-tagged protein, 100 ng Ras, 30 min): 4.5 fold
B2: GRF2: Flag-tagged full-length RasGRF2, positive control GEF for Ras (protein, UniProt O14827 1-1237, looked up)
chain: MQKSVRYNEGHALYLAFLARKEGTKRGFLSKKTAEASRWHEKWFALYQNVLFYFEGEQSCRPAGMYLLEGCSCERTPAPPRAGAGQGGVRDALDKQYYFTVLFGHEGQKPLELRCEEEQDGKEWMEAIHQASYADILIEREVLMQKYIHLVQIVETEKIAANQLRHQLEDQDTEIERLKSEIIALNKTKERMRPYQSNQEDEDPDIKKIKKVQSFMRGWLCRRKWKTIVQDYICSPHAESMRKRNQIVFTMVEAESEYVHQLYILVNGFLRPLRMAASSKKPPISHDDVSSIFLNSETIMFLHEIFHQGLKARIANWPTLILADLFDILLPMLNIYQEFVRNHQYSLQVLANCKQNRDFDKLLKQYEANPACEGRMLETFLTYPMFQIPRYIITLHELLAHTPHEHVERKSLEFAKSKLEELSRVMHDEVSDTENIRKNLAIERMIVEGCDILLDTSQTFIRQGSLIQVPSVERGKLSKVRLGSLSLKKEGERQCFLFTKHFLICTRSSGGKLHLLKTGGVLSLIDCTLIEEPDASDDDSKGSGQVFGHLDFKIVVEPPDAAAFTVVLLAPSRQEKAAWMSDISQCVDNIRCNGLMTIVFEENSKVTVPHMIKSDARLHKDDTDICFSKTLNSCKVPQIRYASVERLLERLTDLRFLSIDFLNTFLHTYRIFTTAAVVLGKLSDIYKRPFTSIPVRSLELFFATSQNNRGEHLVDGKSPRLCRKFSSPPPLAVSRTSSPVRARKLSLTSPLNSKIGALDLTTSSSPTTTTQSPAASPPPHTGQIPLDLSRGLSSPEQSPGTVEENVDNPRVDLCNKLKRSIQKAVLESAPADRAGVESSPAADTTELSPCRSPSTPRHLRYRQPGGQTADNAHCSVSPASAFAIATAAAGHGSPPGFNNTERTCDKEFIIRRTATNRVLNVLRHWVSKHAQDFELNNELKMNVLNLLEEVLRDPDLLPQERKAAANILRALSQDDQDDIHLKLEDIIQMTDCMKAECFESLSAMELAEQITLLDHVIFRSIPYEEFLGQGWMKLDKNERTPYIMKTSQHFNDMSNLVASQIMNYADVSSRANAIEKWVAVADICRCLHNYNGVLEITSALNRSAIYRLKKTWAKVSKQTKALMDKLQKTVSSEGRFKNLRETLKNCNPPAVPYLGMYLTDLAFIEEGTPNFTEEGLVNFSKMRMISHIIREIRQFQQTSYRIDHQPKVAQYLLDKDLIIDEDTLYELSLKIEPRLPA
modifications: full-length Flag tag
notes: Flag-tagged full-length RasGRF2, positive control GEF for Ras
- Binding to nucleotide-bound forms of Ras, similar experiments (Ras [3]): bind only to EDTA-treated Ras

B3: isolated CDC25 domain of GRF4: Isolated CDC25 catalytic domain of GRF4 (protein)
chain: SLLQLSTVEVATQLSMRNFELFRNIEPTEYIDDLFKLRSKTSCANLKRFEEVINQETFWVASEILRETNQLKRMKIIKHFIKIALHCRECKNFNSMFAIISGLNLAPVARLRTTWEKLPNKYEKLFQDLQDLFDPSRNMAKYRNVLNSQNLQPPIIPLFPVIKKDLTFLHEGNDSKVDGLVNFEKLRMIAKEIRHVGRMASVNMDPALMFRTRKKKWRSLGSLSQGSTNATVLDVAQTGGHKKRVRRSSFLNAKKLYEDAQMARKVKQYLSNLELEMDEESLQTLSLQCEPATNT
- In vitro GEF activity on Ras (Ras [2]): unable to demonstrate significant activation
